Test results published in US20070065439A1 (Amgen, published 2007).
Values belong to the binder of their own block, whether it stands above or below them.

Legend:
IL-1β R11A mutant [1] = molecular target: T1, IL-1β R11A mutant (human, UniProt P01584 117-269); assay: binding to site-directed IL-1β mutant; X = abrogation of binding
T1 construct: site-directed mutant

IL-1β H30A mutant [2] = molecular target: T2, IL-1β H30A mutant (human, UniProt P01584 117-269); assay: as above
T2 construct: site-directed mutant

[3] = molecular target: T3, Recombinant human IL-1beta (rhIL-1b) (human, UniProt P01584 117-269); assay: Biacore, Low Resolution screen
T3 construct: R&D Systems Cat. No. 201-LB/CF; also called IL-1β; human IL-1β

[4] = molecular target: T3, Recombinant human IL-1beta (rhIL-1b); assay: cell-based or functional assay
[5] = molecular target: T3, Recombinant human IL-1beta (rhIL-1b); assay: Biacore low-res, mAb captured, 25C; IL-1β in solution (118 nM) over captured mAb; low-resolution Biacore, 25 C
[6] = molecular target: T3, Recombinant human IL-1beta (rhIL-1b); assay: Biacore, Medium Resolution; IL-1β in solution; medium-resolution Biacore
[7] = molecular target: T3, Recombinant human IL-1beta (rhIL-1b); assay: cell-based or functional assay; remark: listed apart in the source
[8] = molecular target: T3, Recombinant human IL-1beta (rhIL-1b); assay: Biacore low-res, mAb captured, 25C; IL-1β in solution (118 nM) over captured mAb; low-resolution Biacore, 25 C; poor fit to 1:1 model
[9] = molecular target: T3, Recombinant human IL-1beta (rhIL-1b); assay: cell-based or functional assay; remark: listed apart in the source
[10] = molecular target: T3, Recombinant human IL-1beta (rhIL-1b); assay: Biacore low-res, mAb captured, 25C; poor fit to 1:1 model; IL-1β in solution (118 nM) over captured mAb; low-resolution Biacore, 25 C; poor fit to 1:1 model
IL-1β R4A mutant = molecular target: T4, IL-1β R4A mutant (human, UniProt P01584 117-269); assay: binding to site-directed IL-1β mutant; X = abrogation of binding
T4 construct: site-directed mutant

[11] = molecular target: T3, Recombinant human IL-1beta (rhIL-1b); assay: Biacore, Medium Resolution; complex kinetics; IL-1β in solution; medium-resolution Biacore; complex kinetics
[12] = molecular target: T3, Recombinant human IL-1beta (rhIL-1b); assay: KinExA, single KD-controlled titration
[13] = molecular target: T3, Recombinant human IL-1beta (rhIL-1b); assay: calculated as kon x KD from KinExA
[14] = molecular target: T3, Recombinant human IL-1beta (rhIL-1b); assay: KinExA, triple curve analysis
IL-1β R11A mutant [15] = molecular target: T1, IL-1β R11A mutant; assay: binding to site-directed IL-1β mutants
IL-1β H30A mutant [16] = molecular target: T2, IL-1β H30A mutant; assay: binding to site-directed IL-1β mutants
[17] = molecular target: T3, Recombinant human IL-1beta (rhIL-1b); assay: Biacore, Low Resolution screen; complex kinetics
[18] = molecular target: T3, Recombinant human IL-1beta (rhIL-1b); assay: Biacore, Medium Resolution; IL-1β in solution; medium-resolution Biacore; complex kinetics
[19] = molecular target: T3, Recombinant human IL-1beta (rhIL-1b); assay: cell-based or functional assay; remark: listed apart in the source
[20] = molecular target: T3, Recombinant human IL-1beta (rhIL-1b); assay: Biacore high-res, mAb amine-coupled, 23C, long association and dissociation, IL-1β 55 pM
[21] = molecular target: T3, Recombinant human IL-1beta (rhIL-1b); assay: KinExA direct kinetic method

binding result (IL-1β R11A mutant [1]): no binding
binding result (IL-1β H30A mutant [2]): no binding
Kd [3]: 370 pM
EC50, inhibition of IL-1β-induced IL-6 production in MRC-5 cells [4]: 11600 pM
Kd [5]: 370 pM
koff [5]: 0.00085 s⁻¹
kon [5]: 2.3e+06 M⁻¹ s⁻¹
Kd [6]: 140 pM
koff [6]: 0.00035 s⁻¹
kon [6]: 2.5e+06 M⁻¹ s⁻¹
% IL-6 production, supernatant 1:5 dilut. [7]: 5%
% IL-6 production, supernatant 1:10 dilut. [7]: 21%
% IL-6 production, supernatant 1:20 dilut. [7]: 36%
B1: 9.54.1 (antibody, human IgG4, V domains shown)
VH: QVQLVESGGGVVQPGRSLRLSCAASGFTFSSFGMHWVRQAPGKGLEWVAVIWYDGSNKYYADSVKGRFTISRDNSKNTLYLQMNSLRAEDTAVYYCARDPNYDILTGYYYYGMDVWGQGTTVTVS
VL: SSELTQDPAVSVALGQTVRITCQGDILRTYYASWYQQKPGQAPVLVIYGKNDRPSGIPDRFSGSSSGNTASLTITGAQAEDEADYYCDSRDNTVTHLVFGGGTKLTVL
notes: lambda; also called 9.54.2

koff [8]: 0.0018 s⁻¹
kon [8]: 1.1e+06 M⁻¹ s⁻¹
In Vivo Potency EC50, inhibition of IL-6 induced in mice by human IL-1β [9]: 5 pmoles/mouse
Kd [10]: 1640 pM
binding result (IL-1β R4A mutant): no binding
Kd [11]: 130 pM
Kd [12]: 0.04 pM
koff [13]: 6.1e-07 s⁻¹
Kd [14]: 0.181 pM
binding result (IL-1β R11A mutant [15]): binds
binding result (IL-1β H30A mutant [16]): binds
EC50, inhibition of IL-1β-induced IL-6 production in MRC-5 cells [4]: 4 pM
Kd [17]: 1640 pM
koff [18]: 0.00035 s⁻¹
kon [18]: 2.6e+06 M⁻¹ s⁻¹
EC50, inhibition of IL-1β-induced IL-8 production in human whole blood [19]: 135 pM
Kd [20]: 1.5 pM
koff [20]: 1.1e-06 s⁻¹
kon [20]: 710000 M⁻¹ s⁻¹
kon [21]: 3.4e+06 M⁻¹ s⁻¹
% IL-6 production, supernatant 1:5 dilut. [7]: 0%
% IL-6 production, supernatant 1:10 dilut. [7]: 0%
% IL-6 production, supernatant 1:20 dilut. [7]: 0%
B2: 9.5.2 IgG4 (antibody, V domains shown)
VH: EVQLVESGGGLVKPGRSLRLSCTGSGFTFGDYALNWFRQAPGMGLEWVGFIRGKAYGGTTEYAASVKGRFTISRDDSKSIAYLQMNSLKTEDTAVYYCNREVEYCRSSENYCYGMDVWGQGTTVTVS
VL: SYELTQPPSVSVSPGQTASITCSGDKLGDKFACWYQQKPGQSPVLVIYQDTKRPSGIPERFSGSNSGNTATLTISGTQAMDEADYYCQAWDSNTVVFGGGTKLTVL
notes: also called mAb 9.5.2; mAb 9.5.2 (IgG4 isotype)
